Experimental data taken from the Human Domainome abundance scans (Beltran et al. 2025).
± gives the uncertainty stated by the source.

B1: Bromodomain adjacent to zinc finger domain protein 2B, residues 1927 to 1982; numbered along this chain, Q9UIF8 (parent)
chain: KSIMKVYCQICRKGDNEELLLLCDGCDKGCHTYCHRPKITTIPDGDWFCPACIAKA

Variants of: B1
Assay: abundance fitness (aPCA) (normalised: wild type 0, dead -1); higher = more abundant; growth selection in yeast, the domain comes from the species named
Conditions: Homo sapiens
Work on KSIMKVYCQICRKGDNEELLLLCDGCDKGCHTYCHRPKITTILDGDWFCPACIAKA [P43L] yielded an abundance fitness of -0.163 ± 0.1. In the case of KSIMKVYCQICRKGDNEELLLLCDGCDKGCHTYCHRPKITTITDGDWFCPACIAKA [P43T], the abundance fitness is reported as -0.003 ± 0.13. KSIMKVYCQICRKGDNEELLLLCDGCDKGCHTYCHRPKITTIMDGDWFCPACIAKA [P43M] showed an abundance fitness of -0.269 ± 0.17. In the case of KSIMKVYCQICRKGDNEELLLLCDGCDKGCHTYCHRPKITTIFDGDWFCPACIAKA [P43F], the abundance fitness is reported as -0.451 ± 0.17. KSIMKVYCQICRKGDNEELLLLCDGCDKGCHTYCHRPKITTIVDGDWFCPACIAKA [P43V] gave an abundance fitness of -0.127 ± 0.084. With KSIMKVYCQICRKGDNEELLLLCDGCDKGCHTYCHRPKITTIPDGHWFCPACIAKA [D46H] the abundance fitness was -0.122 ± 0.12. KSIMKVYCQICRKGDNEELLLLCDGCDKGCHTYCHRPKITTIPDGFWFCPACIAKA [D46F] showed an abundance fitness of -0.334 ± 0.15. KSIMKVYCQICRKGDNEELLLLCDGCDKGCHTYCHRPKITTIPDGCWFCPACIAKA [D46C] gave an abundance fitness of -0.06 ± 0.14. In the case of KSIMKVYCQICRKGDNEELLLLCDGCDKGCHTYCHRPKITTIPDGGWFCPACIAKA [D46G], the abundance fitness is reported as -0.031 ± 0.083. Variant KSIMKVYCQICRKGDNEELLLLCDGCDKGCHTYCHRPKITTIPDGAWFCPACIAKA [D46A] has an abundance fitness of -0.146 ± 0.089. With KSIMKVYCQICRKGDNEELLLLCDGCDKGCHTYCHRPKITTIPDGIWFCPACIAKA [D46I] the abundance fitness was -0.305 ± 0.16. Work on KSIMKVYCQICRKGDNEELLLLCDGCDKGCHTYCHRPKITTIPDGKWFCPACIAKA [D46K] yielded an abundance fitness of 0.033 ± 0.13. KSIMKVYCQICRKGDNEELLLLCDGCDKGCHTYCHRPKITTIPDGEWFCPACIAKA [D46E] showed an abundance fitness of 0.028 ± 0.11. Variant KSIMKVYCQICRKGDNEELLLLCDGCDKGCHTYCHRPKITTIPVGDWFCPACIAKA [D44V] has an abundance fitness of -0.105 ± 0.1. In the case of KSIMKVYCQICRKGDNEELLLLCDGCDKGCHTYCHRPKITTIPEGDWFCPACIAKA [D44E], the abundance fitness is reported as -0.206 ± 0.1. KSIMKVYCQICRKGDNEELLLLCDGCDKGCHTYCHRPKITTIPWGDWFCPACIAKA [D44W] showed an abundance fitness of -0.205 ± 0.12. With KSIMKVYCQICRKGDNEELLLLCDGCDKGCHTYCHRPKITTIPQGDWFCPACIAKA [D44Q] the abundance fitness was -0.282 ± 0.24. With KSIMKVYCQICRKGDNEELLLLCDGCDKGCHTYCHRPKITTIPMGDWFCPACIAKA [D44M] the abundance fitness was -0.083 ± 0.12. Work on KSIMKVYCQICRKGDNEELLLLCDGCDKGCHTYCHRPKITTIPYGDWFCPACIAKA [D44Y] yielded an abundance fitness of -0.222 ± 0.2. KSIMKVYCQICRKGDNEELLLLCDGCDKGCHTYCHRPKITTIPGGDWFCPACIAKA [D44G] showed an abundance fitness of -0.017 ± 0.077. KSIMKVYCQICRKGDNEELLLLCDGCDKGCHTYCHRPKITTIPTGDWFCPACIAKA [D44T] showed an abundance fitness of -0.078 ± 0.12. Work on KSIMKVYCQICRKGDNEELLLLCDGCDKGCHTYCHRPKITTIPNGDWFCPACIAKA [D44N] yielded an abundance fitness of 0.111 ± 0.19. KSIMKVYCQICRKGDNEELLLLCDGCDKGCHTYCHRPKITTIPLGDWFCPACIAKA [D44L] gave an abundance fitness of -0.085 ± 0.087. With KSIMKVYCQICRKGDNEELLLLCDGCDKGCHTYCHRPKITTIPKGDWFCPACIAKA [D44K] the abundance fitness was -0.235 ± 0.13. Variant KSIMKVYCQICRKGDNEELLLLCDGCDKGCHTYCHRPKITTIPRGDWFCPACIAKA [D44R] has an abundance fitness of -0.086 ± 0.082. For KSIMKVYCQICRKGDNEELLLLCDGCDKGCHTYCHRPKITTIPAGDWFCPACIAKA [D44A], the abundance fitness was -0.11 ± 0.1. Variant KSIMKVYCQICRKGDNEELLLLCDGCDKGCHTYCHRPKITTIPPGDWFCPACIAKA [D44P] has an abundance fitness of 0.048 ± 0.11. Work on KSIMKVYCQICRKGDNEELLLLCDGCDKGCHTYCHRPKITTIPHGDWFCPACIAKA [D44H] yielded an abundance fitness of -0.022 ± 0.17. For KSIMKVYCQICRKGDNEELLLLCDGCDKGCHTYCHRPKITTIPIGDWFCPACIAKA [D44I], the abundance fitness was -0.018 ± 0.28. KSIMKVYCQICRKGDNEELLLLCDGCDKGCHTYCHRPKITTIPSGDWFCPACIAKA [D44S] gave an abundance fitness of -0.031 ± 0.086. With KSIMKVYCQICRKGDNEELLLLCDGCDKGCHTYCHRPKITKIPDGDWFCPACIAKA [T41K] the abundance fitness was 0.085 ± 0.24. In the case of KSIMKVYCQICRKGDNEELLLLCDGCDKGCHTYCHRPKITSIPDGDWFCPACIAKA [T41S], the abundance fitness is reported as -0.091 ± 0.094. With KSIMKVYCQICRKGDNEELLLLCDGCDKGCHTYCHRPKITMIPDGDWFCPACIAKA [T41M] the abundance fitness was -0.108 ± 0.12. KSIMKVYCQICRKGDNEELLLLCDGCDKGCHTYCHRPKITGIPDGDWFCPACIAKA [T41G] gave an abundance fitness of 0.001 ± 0.061. Work on KSIMKVYCQICRKGDNEELLLLCDGCDKGCHTYCHRPKITCIPDGDWFCPACIAKA [T41C] yielded an abundance fitness of -0.09 ± 0.14. Work on KSIMKVYCQICRKGDNEELLLLCDGCDKGCHTYCHRPKITHIPDGDWFCPACIAKA [T41H] yielded an abundance fitness of -0.041 ± 0.16. For KSIMKVYCQICRKGDNEELLLLCDGCDKGCHTYCHRPKITVIPDGDWFCPACIAKA [T41V], the abundance fitness was -0.057 ± 0.074. In the case of KSIMKVYCQICRKGDNEELLLLCDGCDKGCHTYCHRPKITRIPDGDWFCPACIAKA [T41R], the abundance fitness is reported as -0.048 ± 0.072. With KSIMKVYCQICRKGDNEELLLLCDGCDKGCHTYCHRPKITWIPDGDWFCPACIAKA [T41W] the abundance fitness was -0.167 ± 0.11. With KSIMKVYCQICRKGDNEELLLLCDGCDKGCHTYCHRPKITEIPDGDWFCPACIAKA [T41E] the abundance fitness was 0.023 ± 0.11. For KSIMKVYCQICRKGDNEELLLLCDGCDKGCHTYCHRPKITYIPDGDWFCPACIAKA [T41Y], the abundance fitness was -0.217 ± 0.16. Work on KSIMKVYCQICRKGDNEELLLLCDGCDKGCHTYCHRPKITQIPDGDWFCPACIAKA [T41Q] yielded an abundance fitness of -0.018 ± 0.17. KSIMKVYCQICRKGDNEELLLLCDGCDKGCHTYCHRPKITPIPDGDWFCPACIAKA [T41P] showed an abundance fitness of 0.074 ± 0.16. In the case of KSIMKVYCQICRKGDNEELLLLCDGCDKGCHTYCHRPKITAIPDGDWFCPACIAKA [T41A], the abundance fitness is reported as -0.112 ± 0.078. For KSIMKVYCQICRKGDNEELLLLCDGCDKGCHTYCHRPKITDIPDGDWFCPACIAKA [T41D], the abundance fitness was -0.085 ± 0.11. With KSIMKVYCQICRKGDNEELLLLCDGCDKGCHTYCHRPKITNIPDGDWFCPACIAKA [T41N] the abundance fitness was -0.059 ± 0.16. Variant KSIMKVYCQICRKGDNEELLLLCDGCDKGCHTYCHRPKITLIPDGDWFCPACIAKA [T41L] has an abundance fitness of -0.187 ± 0.1.
